Bridge positions count the residues as written; N and C are the ends. Square brackets hold non-standard residues; d marks the D form. 1Nal = N[C@@H](Cc1cccc2ccccc12)C(=O)O; 2Nal = N[C@@H](Cc1ccc2ccccc2c1)C(=O)O; d2Nal = N[C@H](Cc1ccc2ccccc2c1)C(=O)O; Bta = N[C@@H](Cc1csc2ccccc12)C(=O)O; Aib = CC(C)(N)C(=O)O; βAla = NCCC(=O)O
B1: Ac-c(Cys-Glu-His-D-2-Nal-Arg-Bal-Ala-Cys)-Pro-Pro-Lys-Asp-β-Ala-Tyr-Aib-Arg-Lys-Lys-Arg-Arg-Gln-Arg-Arg-Arg-NH2 (peptide)
peptide: Ac-CEH[d2Nal]R[Bta]ACPPKD[βAla]Y[Aib]RKKRRQRRR-NH2
modifications: disulfide 1-8
SMILES: CC(=O)N[C@H]1CSSC[C@@H](C(=O)N2CCC[C@H]2C(=O)N2CCC[C@H]2C(=O)N[C@@H](CCCCN)C(=O)N[C@@H](CC(=O)O)C(=O)NCCC(=O)N[C@@H](Cc2ccc(O)cc2)C(=O)NC(C)(C)C(=O)N[C@@H](CCCNC(=N)N)C(=O)N[C@@H](CCCCN)C(=O)N[C@@H](CCCCN)C(=O)N[C@@H](CCCNC(=N)N)C(=O)N[C@@H](CCCNC(=N)N)C(=O)N[C@@H](CCC(N)=O)C(=O)N[C@@H](CCCNC(=N)N)C(=O)N[C@@H](CCCNC(=N)N)C(=O)N[C@@H](CCCNC(=N)N)C(N)=O)NC(=O)[C@H](C)NC(=O)[C@H](Cc2csc3ccccc23)NC(=O)[C@H](CCCNC(=N)N)NC(=O)[C@@H](Cc2ccc3ccccc3c2)NC(=O)[C@H](Cc2c[nH]cn2)NC(=O)[C@H](CCC(=O)O)NC1=O
B2: Ac-Nle-c(Cys-D-Ala-His-D-Phe-Arg-Trp-Cys)-(Doc)2-Tyr-Gly-Arg-Lys-Lys-Arg-Arg-Gln-Arg-Arg-Arg-NH2 (peptide)
peptide: XCAHFRWCXXYGRKKRRQRRR
modifications: N-terminal Ac; Nle at 1; D-Ala at 3; D-Phe at 5; Doc at 9 and 10; disulfide Cys2-Cys8; C-terminal NH2
B3: Ac-c(Cys-Glu-His-D-2-Nal-Arg-Bal-Ala-Cys)-Pro-Pro-Lys-Asp-β-Ala-Tyr-Gly-Arg-Lys-Lys-Arg-Arg-Gln-Arg-Arg-Arg-NH2 (peptide)
peptide: CEHXRXACPPKDXYGRKKRRQRRR
modifications: N-terminal Ac; D-2-Nal at 4; Bal at 6; β-Ala at 13; disulfide Cys1-Cys8; C-terminal NH2
B4: Ac-c(Cys-Glu-His-D-2-Nal-Arg-1-Nal-Ala-Cys)-Pro-Pro-Lys-Asp-β-Ala-Tyr-Gly-Arg-Lys-Lys-Arg-Arg-Gln-Arg-Arg-Arg-NH2 (peptide)
peptide: CEHXRXACPPKDXYGRKKRRQRRR
modifications: N-terminal Ac; D-2-Nal at 4; 1-Nal at 6; β-Ala at 13; disulfide Cys1-Cys8; C-terminal NH2
B5: Ac-c(Cys-Glu-His-D-2-Nal-Arg-2-Nal-Ala-Cys)-Pro-Pro-Lys-Asp-β-[…]NH2 (peptide)
peptide: Ac-CEH[d2Nal]R[2Nal]ACPPKD[βAla]GRRKRRQRRR-NH2
modifications: disulfide 1-8
SMILES: CC(=O)N[C@H]1CSSC[C@@H](C(=O)N2CCC[C@H]2C(=O)N2CCC[C@H]2C(=O)N[C@@H](CCCCN)C(=O)N[C@@H](CC(=O)O)C(=O)NCCC(=O)NCC(=O)N[C@@H](CCCNC(=N)N)C(=O)N[C@@H](CCCNC(=N)N)C(=O)N[C@@H](CCCCN)C(=O)N[C@@H](CCCNC(=N)N)C(=O)N[C@@H](CCCNC(=N)N)C(=O)N[C@@H](CCC(N)=O)C(=O)N[C@@H](CCCNC(=N)N)C(=O)N[C@@H](CCCNC(=N)N)C(=O)N[C@@H](CCCNC(=N)N)C(N)=O)NC(=O)[C@H](C)NC(=O)[C@H](Cc2ccc3ccccc3c2)NC(=O)[C@H](CCCNC(=N)N)NC(=O)[C@@H](Cc2ccc3ccccc3c2)NC(=O)[C@H](Cc2c[nH]cn2)NC(=O)[C@H](CCC(=O)O)NC1=O
B6: Ac-c(Cys-Glu-His-D-2-Nal-Arg-Bal-Ala-Cys)-Pro-Pro-Arg-Asp-β-[…]NH2 (peptide)
peptide: Ac-CEH[d2Nal]R[Bta]ACPPRD[βAla]RRRRRRQRRR-NH2
modifications: disulfide 1-8
SMILES: CC(=O)N[C@H]1CSSC[C@@H](C(=O)N2CCC[C@H]2C(=O)N2CCC[C@H]2C(=O)N[C@@H](CCCNC(=N)N)C(=O)N[C@@H](CC(=O)O)C(=O)NCCC(=O)N[C@@H](CCCNC(=N)N)C(=O)N[C@@H](CCCNC(=N)N)C(=O)N[C@@H](CCCNC(=N)N)C(=O)N[C@@H](CCCNC(=N)N)C(=O)N[C@@H](CCCNC(=N)N)C(=O)N[C@@H](CCCNC(=N)N)C(=O)N[C@@H](CCC(N)=O)C(=O)N[C@@H](CCCNC(=N)N)C(=O)N[C@@H](CCCNC(=N)N)C(=O)N[C@@H](CCCNC(=N)N)C(N)=O)NC(=O)[C@H](C)NC(=O)[C@H](Cc2csc3ccccc23)NC(=O)[C@H](CCCNC(=N)N)NC(=O)[C@@H](Cc2ccc3ccccc3c2)NC(=O)[C@H](Cc2c[nH]cn2)NC(=O)[C@H](CCC(=O)O)NC1=O
B7: Ac-c(Cys-Glu-His-D-2-Nal-Arg-1-Nal-Ala-Cys)-Pro-Pro-Lys-Asp-β-[…]NH2 (peptide)
peptide: Ac-CEH[d2Nal]R[1Nal]ACPPKD[βAla]GRKRRRQRRR-NH2
modifications: disulfide 1-8
SMILES: CC(=O)N[C@H]1CSSC[C@@H](C(=O)N2CCC[C@H]2C(=O)N2CCC[C@H]2C(=O)N[C@@H](CCCCN)C(=O)N[C@@H](CC(=O)O)C(=O)NCCC(=O)NCC(=O)N[C@@H](CCCNC(=N)N)C(=O)N[C@@H](CCCCN)C(=O)N[C@@H](CCCNC(=N)N)C(=O)N[C@@H](CCCNC(=N)N)C(=O)N[C@@H](CCCNC(=N)N)C(=O)N[C@@H](CCC(N)=O)C(=O)N[C@@H](CCCNC(=N)N)C(=O)N[C@@H](CCCNC(=N)N)C(=O)N[C@@H](CCCNC(=N)N)C(N)=O)NC(=O)[C@H](C)NC(=O)[C@H](Cc2cccc3ccccc23)NC(=O)[C@H](CCCNC(=N)N)NC(=O)[C@@H](Cc2ccc3ccccc3c2)NC(=O)[C@H](Cc2c[nH]cn2)NC(=O)[C@H](CCC(=O)O)NC1=O
B8: Ac-c(Cys-Glu-His-D-2-Nal-Arg-Bal-Ala-Cys)-Pro-Pro-Lys-Asp-β-[…]NH2 (peptide)
peptide: Ac-CEH[d2Nal]R[Bta]ACPPKD[βAla]GRRKRRQRRR-NH2
modifications: disulfide 1-8
SMILES: CC(=O)N[C@H]1CSSC[C@@H](C(=O)N2CCC[C@H]2C(=O)N2CCC[C@H]2C(=O)N[C@@H](CCCCN)C(=O)N[C@@H](CC(=O)O)C(=O)NCCC(=O)NCC(=O)N[C@@H](CCCNC(=N)N)C(=O)N[C@@H](CCCNC(=N)N)C(=O)N[C@@H](CCCCN)C(=O)N[C@@H](CCCNC(=N)N)C(=O)N[C@@H](CCCNC(=N)N)C(=O)N[C@@H](CCC(N)=O)C(=O)N[C@@H](CCCNC(=N)N)C(=O)N[C@@H](CCCNC(=N)N)C(=O)N[C@@H](CCCNC(=N)N)C(N)=O)NC(=O)[C@H](C)NC(=O)[C@H](Cc2csc3ccccc23)NC(=O)[C@H](CCCNC(=N)N)NC(=O)[C@@H](Cc2ccc3ccccc3c2)NC(=O)[C@H](Cc2c[nH]cn2)NC(=O)[C@H](CCC(=O)O)NC1=O
B9: Ac-c(Cys-Glu-His-D-2-Nal-Arg-1-Nal-Ala-Cys)-Pro-Pro-Lys-Asp-β-[…]NH2 (peptide)
peptide: Ac-CEH[d2Nal]R[1Nal]ACPPKD[βAla]GRRKRRQRRR-NH2
modifications: disulfide 1-8
SMILES: CC(=O)N[C@H]1CSSC[C@@H](C(=O)N2CCC[C@H]2C(=O)N2CCC[C@H]2C(=O)N[C@@H](CCCCN)C(=O)N[C@@H](CC(=O)O)C(=O)NCCC(=O)NCC(=O)N[C@@H](CCCNC(=N)N)C(=O)N[C@@H](CCCNC(=N)N)C(=O)N[C@@H](CCCCN)C(=O)N[C@@H](CCCNC(=N)N)C(=O)N[C@@H](CCCNC(=N)N)C(=O)N[C@@H](CCC(N)=O)C(=O)N[C@@H](CCCNC(=N)N)C(=O)N[C@@H](CCCNC(=N)N)C(=O)N[C@@H](CCCNC(=N)N)C(N)=O)NC(=O)[C@H](C)NC(=O)[C@H](Cc2cccc3ccccc23)NC(=O)[C@H](CCCNC(=N)N)NC(=O)[C@@H](Cc2ccc3ccccc3c2)NC(=O)[C@H](Cc2c[nH]cn2)NC(=O)[C@H](CCC(=O)O)NC1=O
B10: Ac-c(Cys-Glu-His-D-2-Nal-Arg-Bal-Ala-Cys)-Pro-Pro-Lys-Asp-β-[…]NH2 (peptide)
peptide: Ac-CEH[d2Nal]R[Bta]ACPPKD[βAla]GRKRRRQRRR-NH2
modifications: disulfide 1-8
SMILES: CC(=O)N[C@H]1CSSC[C@@H](C(=O)N2CCC[C@H]2C(=O)N2CCC[C@H]2C(=O)N[C@@H](CCCCN)C(=O)N[C@@H](CC(=O)O)C(=O)NCCC(=O)NCC(=O)N[C@@H](CCCNC(=N)N)C(=O)N[C@@H](CCCCN)C(=O)N[C@@H](CCCNC(=N)N)C(=O)N[C@@H](CCCNC(=N)N)C(=O)N[C@@H](CCCNC(=N)N)C(=O)N[C@@H](CCC(N)=O)C(=O)N[C@@H](CCCNC(=N)N)C(=O)N[C@@H](CCCNC(=N)N)C(=O)N[C@@H](CCCNC(=N)N)C(N)=O)NC(=O)[C@H](C)NC(=O)[C@H](Cc2csc3ccccc23)NC(=O)[C@H](CCCNC(=N)N)NC(=O)[C@@H](Cc2ccc3ccccc3c2)NC(=O)[C@H](Cc2c[nH]cn2)NC(=O)[C@H](CCC(=O)O)NC1=O
B11: Ac-c(Cys-Glu-His-D-2-Nal-Arg-Bal-Ala-Cys)-Pro-Pro-Lys-Asp-β-[…]NH2 (peptide)
peptide: Ac-CEH[d2Nal]R[Bta]ACPPKD[βAla]RKRRRQRRR-NH2
modifications: disulfide 1-8
SMILES: CC(=O)N[C@H]1CSSC[C@@H](C(=O)N2CCC[C@H]2C(=O)N2CCC[C@H]2C(=O)N[C@@H](CCCCN)C(=O)N[C@@H](CC(=O)O)C(=O)NCCC(=O)N[C@@H](CCCNC(=N)N)C(=O)N[C@@H](CCCCN)C(=O)N[C@@H](CCCNC(=N)N)C(=O)N[C@@H](CCCNC(=N)N)C(=O)N[C@@H](CCCNC(=N)N)C(=O)N[C@@H](CCC(N)=O)C(=O)N[C@@H](CCCNC(=N)N)C(=O)N[C@@H](CCCNC(=N)N)C(=O)N[C@@H](CCCNC(=N)N)C(N)=O)NC(=O)[C@H](C)NC(=O)[C@H](Cc2csc3ccccc23)NC(=O)[C@H](CCCNC(=N)N)NC(=O)[C@@H](Cc2ccc3ccccc3c2)NC(=O)[C@H](Cc2c[nH]cn2)NC(=O)[C@H](CCC(=O)O)NC1=O

Experiments:
Experiment in all cases: [125I]-NDP-α-MSH competition, membranes
[1] = biological target: T1, human melanocortin receptor subtype 3 (hMC3-R) (human, UniProt P41968 1-323)
T1 construct: whole, on cells; membranes of CHO-K1 cells
T1 sequence (P41968 whole entry): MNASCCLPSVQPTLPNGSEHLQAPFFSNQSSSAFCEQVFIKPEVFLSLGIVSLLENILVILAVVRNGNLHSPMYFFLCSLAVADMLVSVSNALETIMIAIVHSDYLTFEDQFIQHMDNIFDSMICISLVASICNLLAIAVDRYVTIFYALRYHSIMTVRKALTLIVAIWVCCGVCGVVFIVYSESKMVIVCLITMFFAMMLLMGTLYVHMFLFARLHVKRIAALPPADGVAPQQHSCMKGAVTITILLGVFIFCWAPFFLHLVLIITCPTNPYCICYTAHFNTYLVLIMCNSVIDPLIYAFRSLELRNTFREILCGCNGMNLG

[2] = biological target: T2, human melanocortin receptor subtype 4 (hMC4-R) (human, UniProt P32245 1-332)
T2 construct: whole, on cells; membranes of CHO-K1 cells
T2 sequence (P32245 whole entry): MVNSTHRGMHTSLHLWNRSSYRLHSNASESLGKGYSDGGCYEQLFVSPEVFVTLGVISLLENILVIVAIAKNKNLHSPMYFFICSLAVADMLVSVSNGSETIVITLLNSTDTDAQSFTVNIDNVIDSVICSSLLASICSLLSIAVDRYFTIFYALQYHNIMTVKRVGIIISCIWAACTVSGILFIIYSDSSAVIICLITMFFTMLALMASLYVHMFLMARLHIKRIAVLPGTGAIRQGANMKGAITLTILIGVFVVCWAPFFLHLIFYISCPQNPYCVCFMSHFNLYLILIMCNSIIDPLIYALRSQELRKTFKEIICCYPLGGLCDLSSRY

[3] = biological target: T3, human melanocortin receptor subtype 5 (hMC5-R) (human, UniProt P33032 1-325)
T3 construct: whole, on cells; membranes of CHO-K1 cells
T3 sequence (P33032 whole entry): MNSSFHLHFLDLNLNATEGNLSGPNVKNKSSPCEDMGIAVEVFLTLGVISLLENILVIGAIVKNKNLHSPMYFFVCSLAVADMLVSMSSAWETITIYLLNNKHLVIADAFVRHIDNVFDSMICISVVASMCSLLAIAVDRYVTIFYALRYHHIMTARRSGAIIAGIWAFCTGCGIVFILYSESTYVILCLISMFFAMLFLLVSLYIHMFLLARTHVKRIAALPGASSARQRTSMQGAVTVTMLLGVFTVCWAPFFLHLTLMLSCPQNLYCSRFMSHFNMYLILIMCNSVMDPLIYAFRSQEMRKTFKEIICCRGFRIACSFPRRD

[4] = biological target: T4, human melanocortin receptor subtype 1 (hMC1-R) (human, UniProt Q01726 1-317)
T4 construct: whole, on cells; membranes of CHO-K1 cells
T4 sequence (Q01726 whole entry): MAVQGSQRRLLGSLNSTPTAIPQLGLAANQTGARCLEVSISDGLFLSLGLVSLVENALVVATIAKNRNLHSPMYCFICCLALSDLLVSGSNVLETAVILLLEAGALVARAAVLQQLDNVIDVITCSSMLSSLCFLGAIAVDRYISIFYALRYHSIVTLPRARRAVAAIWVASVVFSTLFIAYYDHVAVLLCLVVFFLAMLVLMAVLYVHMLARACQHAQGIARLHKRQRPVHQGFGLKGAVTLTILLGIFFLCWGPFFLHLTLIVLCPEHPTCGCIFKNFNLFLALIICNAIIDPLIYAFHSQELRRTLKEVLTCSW

Binder	Ki [1] [nM]	Ki [2] [nM]	Ki [3] [nM]	Ki [4] [nM]
B1	10.2	0.783	91.8	7.84
B2	0.665	0.635	118	0.211
Ac-CEH[d2Nal]R[1Nal]ACPPKD[βAla]RRRRRQRRR-NH2 (disulfide 1-8)	6.56	0.238	41.7	2.42
B3	5.22	0.38	15.3	6.46
B4	6.28	0.588	22.6	4.59
Ac-CEH[d2Nal]R[Bta]ACPPKD[βAla]GRRRRRQRRR-NH2 (disulfide 1-8)	15.9	0.95	165	12.8
B5	0.732	0.202	5.53	2.71
B6	11	0.659	78	7.32
Ac-CEH[d2Nal]R[1Nal]ACPPKD[βAla]RRRRRRQRRR-NH2 (disulfide 1-8)	19.3	0.819	88.8	6.66
Ac-CEH[d2Nal]R[Bta]ACPPKD[βAla]RRRRRRQRRR-NH2 (disulfide 1-8)	14.3	0.781	84	6.77
B7	2.59	0.243	19.2	2.69
B8	1.59	0.573	15.7	2.5
B9	2.08	0.305	19.3	1.81
B10	2.15	0.425	15.5	4.29
B11	1.95	0.575	15.5	3.28

From US20120135923A1 (IPSEN PHARMA S A S, published 2012)
